Data reported in patent US12466859B2, “Desmoglein 2 (DSG2) binding proteins and uses therefor” (UNIVERSITY OF WASHINGTON THROUGH ITS CENTER FOR …, priority 2013, dated 2025).

Key:
[1] = test system: A549 xenograft tumors; assay: Enhancement of irinotecan therapy in A549 xenograft tumors; type: in vivo, CB17-SCID/beige mice; details: 2 mg/kg i.v. one hour before irinotecan 37.5 mg/kg i.v.; tumor volume
Description: (§1) FIG. 5A-5B. Correlation of reduced DSG2 binding with the ability to open epithelial junctions. FIG. 5A) Transepithelial electrical resistance (TEER) measured on polarized colon cancer T84 cells. Cells were cultured in transwell chambers until the TEER was constant, i.e. tight junctions had formed. A total of 5 μg of dimeric Ad3 fiber knobs in PBS was then added for 1 hour to the apical chamber. TEER was measured at the indicated time points. N=6. For time points 1.5 and 4 hours the difference between JO-1 vs D261N and N186D was significant (p<0.01). The arrows indicate the addition and removal of Ad3 fiber knobs. FIG. 5B) Enhancement of irinotecan therapy. A total of 4×10^6 A549 cells were injected subcutaneously into CB17-SCID/beige mice. Once the tumor reached a volume of ˜100 mm^3 (day 15 after implantation), the mice were injected intravenously with 2 mg/kg JO-1, E299V, N186D, or PBS, followed by an intravenous injection of irinotecan (37.5 mg/kg) one hour later. The treatment was repeated on day 25. N=5. […] The difference between “irinotecan” vs “JO-1+irinotecan” was significant (p<0.01) from day 20 on.
FIG. 10A-10C. Combination of affinity-enhanced JO-1 versions with chemotherapy. FIG. 10A) Enhancement of irinotecan (I) therapy. The experimental setting was the same as in FIG. 5B. […] N=5. […] Mammary fat pad tumors were established from primary ovarian cancer ovc316 cells. Treatment was started when tumors reached a volume of 100 mm^3. Mice were injected intravenously with 2 mg/kg JO-1 or with 0.5 mg/kg JO-4, followed by an intravenous injection of PEGylated liposomal doxorubicin (PLD) (1 mg/kg) one hour later. Treatment was repeated weekly. […] A total of 4×10^6 TNBC MDA-MB-231 cells were injected into the mammary fat pad of CB17 SCID-beige mice. JO-4 (2 mg/kg) was intravenously injected 1 hour before the application of cetuximab (C) (10 mg/kg, i.p.) and nab-paclitaxel (nab-P) (5 mg/kg, i.v.). Treatment was given weekly. N=10 P<0.01 at day 25 for nab-P+C vs JO-4+nab-P+C.
A549, MDA-MB-231, and ovc316 xenograft tumors were established by injection of the corresponding tumor cells into the mammary fat pad (1:1 with Matrigel) of CB17 mice. TC1-DSG2 tumors were established by subcutaneous injection of TC1-DSG2 cells into DSG2 transgenic mice. JO-0, JO-1, JO-2, or JO-4 were intravenously injected one hour before the application of chemotherapeutic drugs: Irinotecan/Camptosar™ (Pfizer Inc., Groton, CT), PEGylated liposomal doxorubicin/Lipodox™ (Sun Pharmaceuticals IN, India), cetuximab/Erbitux™ (ImClone, Somerville, NJ), nanoparticle albumin conjugated paclitaxel/Abraxane” (Abraxis Biosciences, Summit, NJ). Tumor volumes were measured three times a week. Each treatment group consisted of a minimum of 5 mice.

[2] = test system: polarized colon cancer T84 cells; assay: Transepithelial electrical resistance (TEER) on polarized T84 cells; type: cell-based; details: for Effect on the TEER: added for 1 hour to the apical side of transwell cultures; for TEER compared to JO-1: dimeric affinity-enhanced mutants, TEER at 4 hours
Description: as §1
FIG. 9A1-9C. Analysis of dimeric Ad3 fiber knob mutants with increased affinity to DSG2. FIG. 9A1-9A2) Competition of Ad3-GFP virus infection on HeLa cells with dimeric affinity-enhanced mutant Y250F and JO-1 (dimeric wt Ad3 fiber knob). The experimental setting is as described for FIG. 3C. FIG. 9A1) percentage of GFP positive cells. FIG. 9A2) mean fluorescence intensity. N=3. The standard deviation was less than 10%. FIG. 9B1-9B2) Competition of Ad3-GFP virus infection on HeLa cells by Ad3 knob mutants with enhanced DSG2 binding but without dimerization domain. 1.5×10^5 HeLa cells were seeded into 24 well plates. Cells were incubated with the Ad3 knob mutants at the increasing concentrations for one hour at room temperature. 100 pfu/cell of Ad3GFP virus were then added and GFP expression was analyzed 18 hours later. FIG. 9B1) % of GFP+cells; FIG. 9B2) MFI. FIG. 9C) TEER on colon cancer T84 cells. The experimental setting was the same as for FIG. 5A. The TEER at 4 hours is shown. N=3.
Permeability assay. A total of 5×10^5 T84 cells were seeded in 12 mm transwell inserts (PET membrane, with 0.4 μm pore size (Corning, NY) and cultured for >14 days until transepithelial electrical resistance (TEER) was stable. Culture medium was changed every 2-3 days. The cells were exposed to DSG2 ligands (20 μg/ml) in adhesion medium (DMEM, 1% FBS, 2 mM MgCl2, 20 mM HEPES) for 15 min at room temperature and TEER was measured and calculated as described elsewhere (39).

B1: N186D (protein)
chain: MKVSALKEKVSALKEKVSALKEKVSALKEKVSALKEGSGGGSGGGSGGGSNSIALKNNTLWTGPKPEANCIIEYGKQNPDSKLTLILVKNGGIVNGYVTLMGASDYVNTLFKDKNVSINVELYFDATGHILPDSSSLKTDLELKYKQTADFSARGFMPSTTAYPFVLPNAGTHNENYIFGQCYYKASDGALFPLEVTVMLNKRLPDSRTSYVMTFLWSLNAGLAPETTQATLITSPFTFSYIREDD
[1]
  Enhancement of irinotecan therapy: not significant
[2]
  Effect on the TEER: intermediate effects

B2: K217E+F224S (protein)
chain: MKVSALKEKVSALKEKVSALKEKVSALKEKVSALKEGSGGGSGGGSGGGSNSIALKNNTLWTGPKPEANCIIEYGKQNPDSKLTLILVKNGGIVNGYVTLMGASDYVNTLFKNKNVSINVELYFDATGHILPDSSSLKTDLELEYKQTADSSARGFMPSTTAYPFVLPNAGTHNENYIFGQCYYKASDGALFPLEVTVMLNKRLPDSRTSYVMTFLWSLNAGLAPETTQATLITSPFTFSYIREDD
[2]
  TEER compared to JO-1: significantly higher

B3: E299V (protein)
chain: MKVSALKEKVSALKEKVSALKEKVSALKEKVSALKEGSGGGSGGGSGGGSNSIALKNNTLWTGPKPEANCIIEYGKQNPDSKLTLILVKNGGIVNGYVTLMGASDYVNTLFKNKNVSINVELYFDATGHILPDSSSLKTDLELKYKQTADFSARGFMPSTTAYPFVLPNAGTHNENYIFGQCYYKASDGALFPLEVTVMLNKRLPDSRTSYVMTFLWSLNAGLAPVTTQATLITSPFTFSYIREDD
[1]
  Enhancement of irinotecan therapy: not significant
[2]
  Effect on the TEER: intermediate effects

B4: V239D (protein)
chain: MKVSALKEKVSALKEKVSALKEKVSALKEKVSALKEGSGGGSGGGSGGGSNSIALKNNTLWTGPKPEANCIIEYGKQNPDSKLTLILVKNGGIVNGYVTLMGASDYVNTLFKNKNVSINVELYFDATGHILPDSSSLKTDLELKYKQTADFSARGFMPSTTAYPFDLPNAGTHNENYIFGQCYYKASDGALFPLEVTVMLNKRLPDSRTSYVMTFLWSLNAGLAPETTQATLITSPFTFSYIREDD
[2]
  TEER compared to JO-1: significantly higher
